Biological target: RSV fusion glycoprotein (F) of RSV A2 strain virus (human respiratory syncytial virus A2 …, UniProt P03420 26-574)
Test: cell-based or functional assay

Sequence of RSV fusion glycoprotein (F) of RSV A2 strain virus (P03420 26-574): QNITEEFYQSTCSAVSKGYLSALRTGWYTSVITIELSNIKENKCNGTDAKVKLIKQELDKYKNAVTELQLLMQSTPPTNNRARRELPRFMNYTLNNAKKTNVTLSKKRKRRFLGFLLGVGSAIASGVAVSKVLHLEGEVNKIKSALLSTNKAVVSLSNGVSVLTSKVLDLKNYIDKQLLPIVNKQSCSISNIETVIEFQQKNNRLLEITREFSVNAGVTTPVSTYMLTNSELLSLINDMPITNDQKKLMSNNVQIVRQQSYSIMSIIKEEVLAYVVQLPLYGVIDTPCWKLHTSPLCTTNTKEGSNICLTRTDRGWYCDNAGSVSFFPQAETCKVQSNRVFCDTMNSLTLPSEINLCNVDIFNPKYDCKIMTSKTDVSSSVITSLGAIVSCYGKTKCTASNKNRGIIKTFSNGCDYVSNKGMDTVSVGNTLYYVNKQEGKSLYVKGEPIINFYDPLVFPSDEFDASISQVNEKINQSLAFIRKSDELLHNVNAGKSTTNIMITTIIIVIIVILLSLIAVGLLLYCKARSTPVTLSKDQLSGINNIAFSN

B1: Palivizumab (Synagis, MedImmune) (antibody, V domains shown)
VH: QVTLRESGPALVKPTQTLTLTCTFSGFSLSTSGMSVGWIRQPPGKALEWLADIWWDDKKDYNPSLKSRLTISKDTSKNQVVLKVTNMDPADTATYYCARSMITNWYFDVWGAGTTVTVSS
VL: DIQMTQSPSTLSASVGDRVTITCKCQLSVGYMHWYQQKPGKAPKLLIYDTSKLASGVPSRFSGSGSGTEFTLTISSLQPDDFATYYCFQGSGYPFTFGGGTKLEIK
For B1, the “IC50 neutralizing activity (plaque reduction neutralization test, RSV A2 on HEp-2 cells)” value was 2 µg/mL.

Source: patent publication US20190030156A1 (TECHNOVAX, published 2019)
